Results: the Human Domainome abundance scans (Beltran et al. 2025)
± gives the uncertainty stated by the source.

B1: POU domain, class 6, transcription factor 2, residues 609 to 663; numbered along this chain, P78424 (parent)
chain: KRRTSFTPQALEILNAHFEKNTHPSGQEMTEIAEKLNYDREVVRVWFCNKRQALK

Variants of: B1
Assay: abundance fitness (aPCA) (normalised: wild type 0, dead -1); higher = more abundant; growth selection in yeast, the domain comes from the species named
Conditions: Homo sapiens

Variant | abundance fitness
V43M | -0.931 ± 0.18
V43S | -0.958 ± 0.13
V43A | -0.614 ± 0.099
V43I | -0.218 ± 0.13
V43L | -0.201 ± 0.096
D39S | -0.052 ± 0.053
D39E | -0.208 ± 0.092
D39N | -0.138 ± 0.073
D39M | -0.483 ± 0.13
D39H | -0.113 ± 0.062
D39P | 0.037 ± 0.058
D39F | -0.635 ± 0.068
T30H | -0.061 ± 0.25
T30W | -0.393 ± 0.16
T30S | -0.232 ± 0.17
T30Q | -0.119 ± 0.4
T30K | -0.176 ± 0.33
T30P | -0.692 ± 0.22
T30Y | -0.25 ± 0.18
T30E | -0.259 ± 0.22
T30G | -0.128 ± 0.12
V45E | -0.194 ± 0.23
V45H | -0.141 ± 0.17
V45M | 0.07 ± 0.48

Variant | abundance fitness
V45D | 0.094 ± 0.23
V45I | -0.068 ± 0.13
V45L | 0.02 ± 0.099
V45K | -0.149 ± 0.15
V45A | -0.029 ± 0.2
R2C | -0.345 ± 0.11
R2F | -0.056 ± 0.14
R2E | 0.108 ± 0.12
R2G | -0.034 ± 0.065
Y38K | -0.133 ± 0.095
Y38H | -0.176 ± 0.1
Y38F | -0.145 ± 0.098
Y38M | 0.022 ± 0.062
Y38D | -0.152 ± 0.066
Y38G | -0.2 ± 0.043
Y38S | 0.034 ± 0.059
N37E | -0.075 ± 0.12
N37T | -0.263 ± 0.14
N37K | -0.036 ± 0.11
N37F | -0.353 ± 0.13
N37D | -0.042 ± 0.14
E31R | -0.028 ± 0.15
E31P | -0.516 ± 0.3
E31I | -0.534 ± 0.24

Variant | abundance fitness
E31D | -0.077 ± 0.22
E31N | -0.258 ± 0.3
E31C | -0.424 ± 0.23
K35H | -0.221 ± 0.44
K35T | 0.071 ± 0.17
K35I | -0.167 ± 0.25
K35Q | -0.095 ± 0.22
K35N | -0.255 ± 0.21
K35D | -0.139 ± 0.12
K35G | -0.087 ± 0.088
A16V | -0.078 ± 0.06
A16F | -0.091 ± 0.1
A16R | -0.084 ± 0.052
A16H | 0.044 ± 0.17
A16M | 0.016 ± 0.09
A16Y | -0.151 ± 0.12
I13Q | -0.132 ± 0.22
I13T | -0.003 ± 0.19
I13S | -0.279 ± 0.14
I13H | -0.172 ± 0.27
I13G | -0.385 ± 0.099
I13L | -0.017 ± 0.13
H23Y | -0.257 ± 0.15
H23A | -0.062 ± 0.094

Variant | abundance fitness
H23K | -0.034 ± 0.12
H23V | -0.086 ± 0.074
R44V | 0.034 ± 0.083
R44K | -0.195 ± 0.11
R44N | -0.195 ± 0.15
R44T | 0.018 ± 0.1
R44S | -0.094 ± 0.074
R44Y | 0.062 ± 0.13
S25T | 0.003 ± 0.17
S25F | -0.515 ± 0.18
S25I | -0.355 ± 0.17
S25D | -0.17 ± 0.18
S25N | -0.073 ± 0.19
R51A | -0.094 ± 0.11
R51V | -0.165 ± 0.094
R51T | -0.243 ± 0.16
R51M | -0.377 ± 0.2
R51C | -0.316 ± 0.15
R51W | -0.295 ± 0.12
R51L | 0.011 ± 0.091
C48W | 0.02 ± 0.37
C48D | -0.144 ± 0.37
C48N | 0.277 ± 0.43
C48I | -0.475 ± 0.36

Variant | abundance fitness
T7I | -0.615 ± 0.2
T7M | -0.395 ± 0.14
T7C | -0.079 ± 0.1
T7Y | -0.637 ± 0.17
T7R | -0.321 ± 0.087
T7G | -0.007 ± 0.093
T7H | -0.226 ± 0.18
T7E | 0.05 ± 0.13
T7K | -0.565 ± 0.17
T7N | -0.303 ± 0.3
T7W | -0.409 ± 0.089
E19D | -0.037 ± 0.11
E19W | -0.127 ± 0.1
E19F | -0.288 ± 0.12
E19N | -0.07 ± 0.15
E19R | -0.05 ± 0.071
Q27D | 0.25 ± 0.15
Q27G | -0.063 ± 0.066
Q27V | -0.091 ± 0.075
Q27L | 0.064 ± 0.085
Q27R | 0.012 ± 0.068
Q27Y | -0.315 ± 0.2
L36G | -0.823 ± 0.13
L36A | -0.094 ± 0.18

Variant | abundance fitness
L36M | -0.175 ± 0.33
L36C | -0.073 ± 0.27
L36V | -0.003 ± 0.14
K55V | -0.304 ± 0.5
K1L | -0.465 ± 0.24
K1Y | -0.41 ± 0.34
K1I | 0.111 ± 0.2
K1G | 0.157 ± 0.18
K1A | -0.19 ± 0.24
K1H | -0.309 ± 0.2
K1W | -0.267 ± 0.16
H17S | -0.065 ± 0.063
H17Q | -0.002 ± 0.086
H17A | -0.03 ± 0.067
H17R | -0.101 ± 0.057
H17N | -0.101 ± 0.15
H17Y | -0.065 ± 0.092
H17G | -0.369 ± 0.057
H17D | -0.156 ± 0.09
H17M | -0.028 ± 0.077
T22R | 0.005 ± 0.065
T22E | -0.098 ± 0.19
T22M | -0.022 ± 0.13
T22P | 0.016 ± 0.1

Variant | abundance fitness
T22G | 0.002 ± 0.067
T22N | 0.049 ± 0.12
T22W | -0.176 ± 0.073
K20H | -0.239 ± 0.16
K20G | -0.129 ± 0.061
K20N | -0.227 ± 0.18
K20M | -0.02 ± 0.13
K20L | -0.144 ± 0.074
K20C | -0.289 ± 0.086
K20R | -0.017 ± 0.061
K20W | -0.303 ± 0.084
K20T | -0.057 ± 0.088
I32R | -0.958 ± 0.26
I32W | -0.742 ± 0.24
I32S | -1.07 ± 0.26
I32Y | 0.031 ± 0.36
R3N | 0.208 ± 0.17
R3V | -0.001 ± 0.071
R3M | 0.01 ± 0.1
R3S | 0.02 ± 0.078
R3Q | -0.073 ± 0.17
R3T | -0.134 ± 0.11
R3C | -0.236 ± 0.12
